Key:
Assay in all cases: cell-based or functional assay
[1] = biological target: micro-plasmin (UniProt P00747)
[2] = biological target: delta-plasmin (human (recombinant deletion mutant of human plasminogen, made in E. coli)) (UniProt P00747)
[3] = biological target: mini-plasmin (human) (UniProt P00747)
[4] = biological target: plasmin (human) (UniProt P00747)

B1: α2-antiplasmin (protein, UniProt P08697 40-491, looked up)
chain: NQEQVSPLTLLKLGNQEPGGQTALKSPPGVCSRDPTPEQTHRLARAMMAFTADLFSLVAQTSTCPNLILSPLSVALALSHLALGAQNHTLQRLQQVLHAGSGPCLPHLLSRLCQDLGPGAFRLAARMYLQKGFPIKEDFLEQSEQLFGAKPVSLTGKQEDDLANINQWVKEATEGKIQEFLSGLPEDTVLLLLNAIHFQGFWRNKFDPSLTQRDSFHLDEQFTVPVEMMQARTYPLRWFLLEQPEIQVAHFPFKNNMSFVVLVPTHFEWNVSQVLANLSWDTLHPPLVWERPTKVRLPKLYLKHQMDLVATLSQLGLQELFQAPDLRGISEQSLVVSGVQHQSTLELSEVGVEAAAATSIAMSRMSLSSFSVNRPFLFFIFEDTTGLPLFVGSVRNPNPSAPRELKEQQDSPGNKDFLQSLKGFPRGDKLFGPDLKLVPPMEEDYPQFGSPK
inhibition rate (22° C., PBS, pH 7.4; residual S-2251 activity) [1]: 180000 M^-1s^-1 | inhibition rate (second separate experiment; residual S-2251 activity) [1]: 310000 M⁻¹ s⁻¹ | fold change of inhibition rate against micro-plasmin or mini-plasmin [2]: 40 fold | inhibition rate (22° C., PBS, pH 7.4; residual S-2251 activity) [2]: 1.1e+07 M^-1s^-1 | inhibition rate (22° C., PBS, pH 7.4; residual S-2251 activity) [3]: 240000 M^-1s^-1

B2: α2-macroglobulin (protein, UniProt P01023 24-1474, looked up)
chain: SVSGKPQYMVLVPSLLHTETTEKGCVLLSYLNETVTVSASLESVRGNRSLFTDLEAENDVLHCVAFAVPKSSSNEEVMFLTVQVKGPTQEFKKRTTVMVKNEDSLVFVQTDKSIYKPGQTVKFRVVSMDENFHPLNELIPLVYIQDPKGNRIAQWQSFQLEGGLKQFSFPLSSEPFQGSYKVVVQKKSGGRTEHPFTVEEFVLPKFEVQVTVPKIITILEEEMNVSVCGLYTYGKPVPGHVTVSICRKYSDASDCHGEDSQAFCEKFSGQLNSHGCFYQQVKTKVFQLKRKEYEMKLHTEAQIQEEGTVVELTGRQSSEITRTITKLSFVKVDSHFRQGIPFFGQVRLVDGKGVPIPNKVIFIRGNEANYYSNATTDEHGLVQFSINTTNVMGTSLTVRVNYKDRSPCYGYQWVSEEHEEAHHTAYLVFSPSKSFVHLEPMSHELPCGHTQTVQAHYILNGGTLLGLKKLSFYYLIMAKGGIVRTGTHGLLVKQEDMKGHFSISIPVKSDIAPVARLLIYAVLPTGDVIGDSAKYDVENCLANKVDLSFSPSQSLPASHAHLRVTAAPQSVCALRAVDQSVLLMKPDAELSASSVYNLLPEKDLTGFPGPLNDQDNEDCINRHNVYINGITYTPVSSTNEKDMYSFLEDMGLKAFTNSKIRKPKMCPQLQQYEMHGPEGLRVGFYESDVMGRGHARLVHVEEPHTETVRKYFPETWIWDLVVVNSAGVAEVGVTVPDTITEWKAGAFCLSEDAGLGISSTASLRAFQPFFVELTMPYSVIRGEAFTLKATVLNYLPKCIRVSVQLEASPAFLAVPVEKEQAPHCICANGRQTVSWAVTPKSLGNVNFTVSAEALESQELCGTEVPSVPEHGRKDTVIKPLLVEPEGLEKETTFNSLLCPSGGEVSEELSLKLPPNVVEESARASVSVLGDILGSAMQNTQNLLQMPYGCGEQNMVLFAPNIYVLDYLNETQQLTPEIKSKAIGYLNTGYQRQLNYKHYDGSYSTFGERYGRNQGNTWLTAFVLKTFAQARAYIFIDEAHITQALIWLSQRQKDNGCFRSSGSLLNNAIKGGVEDEVTLSAYITIALLEIPLTVTHPVVRNALFCLESAWKTAQEGDHGSHVYTKALLAYAFALAGNQDKRKEVLKSLNEEAVKKDNSVHWERPQKPKAPVGHFYEPQAPSAEVEMTSYVLLAYLTAQPAPTSEDLTSATNIVKWITKQQNAQGGFSSTQDTVVALHALSKYGAATFTRTGKAAQVTIQSSGTFSSKFQVDNNNRLLLQQVSLPELPGEYSMKVTGEGCVYLQTSLKYNILPEKEEFPFALGVQTLPQTCDEPKAHTSFQISLSVSYTGSRSASNMAIVDVKMVSGFIPLKPTVKMLERSNHVSRTEVSSNHVLIYLDKVSNQTLSLFFTVLQDVPVRDLKPAIVKVYDYYETDEFAIAEYNAPCSKDLGNA
inhibition rate (22° C., PBS, pH 7.4) [4]: 650000 M^-1s^-1 | inhibition rate (22° C., PBS, pH 7.4) [1]: 780000 M^-1s^-1 | inhibition rate (22° C., PBS, pH 7.4) [2]: 760000 M^-1s^-1 | inhibition rate (22° C., PBS, pH 7.4) [3]: 750000 M^-1s^-1

Source: patent publication US20100304465A1
